This note sets out measurements from FireProtDB (doi:10.1016/j.jmb.2010.09.022).

B1: Profilin, Q58NA1 (parent)
chain: MSDWDPVVKEWLVDTGYCCAGGIANAEDGVVFAAAADDDDGWSKLYKDDHEEDTIGEDGNACGKVSINEASTIKAAVDDGSAPNGVWIGGQKYKVVRPEKGFEYNDCTFDITMCARSKGGAHLIKTPNGSIVIALYDEEKEQDKGNSRTSALAFAEYLHQSGY

The variants in the data set derive from B1. The note with it: Toxoplasma gondii; pH 7.5; Thermal; CD; HEPES 10mM; KCl 100mM; reversible: yes; structure 3NEC; whole UniProt chain shown.

Take MSDWDPVVKEWLVDTGYCCAGGIANAEDGVVFAAAADDDDGWSKLYKDDHEEDTIGEDGNACGKVSINEASTIKAAVDDGSAPNGVWIGGQKYQFVNIEKGFEYNDCTFDIATCARSKGGAHLIKTPNGSIVIALYDEEKEQDKGNSRTSALAFAEYLHQSGY [K94Q V95F R97N P98I T112A M113T]: the Tm amounted to 62.2 °C and the “change of melting temperature, mutant - wild type (higher = more stable)” value amounted to 9.1 °C.
With MSDWDPVVKEWLVDTGYCCAGGIANAEDGVVFAAAADQGDGWSKLYKDDHEEDTIGEDGNACGKVSINEASTIKAAVDDGSAPNGVWIGGQKYKVVRPEKGFEYNDCTFDITMCARSKGGAHLIKTPNGSIVIALYDEEKEQDKGNSRTSALAFAEYLHQSGY [D38Q D39G], the Tm turned out to be 51.3 °C and the “change of melting temperature, mutant - wild type (higher = more stable)” value is -1.8 °C.
